We go through 167 variants from the RNAGym collection of RNA variant scans (doi:10.7554/elife.80360).

B1: HDV Ribozyme (parent)
chain: GGCCGGCAUGGUCCCAGCCUCCUCGCUGGCGCCGGCUGGGCAACAUUCCGAGGGGACCGUCCCCUCGGUAAUGGCGAAUGGGACCCA

In this series the parent is B1. The experiment in a line: self-cleavage, relative activity (ratio to wild type); higher = more cleavage; co-transcriptional.
Consider C22A G67A, for which the self-cleavage worked out at 0.185.

With C22A G40C, the self-cleavage was determined as 0.0282. Turning to C22A G31C, the self-cleavage came to 0. For C22A G31U, the self-cleavage stood at 0.0594. Take C22A G31A: the self-cleavage was found to be 0.128.

In the case of C21U G39U, the self-cleavage was 0.604. Turning to C21U G39A, the self-cleavage was 0.993.

Regarding C21U G67C, the self-cleavage turned out to be 0.205. For C22A C30G, the self-cleavage is 0.154.

For C21U G28A, the self-cleavage is 0.0791. C21U G28U: the self-cleavage worked out at 0.

As to C21U G53A, the self-cleavage was found to be 0.116. With C21U G53C, the self-cleavage came out at 0.188.

Take C22A G52A: the self-cleavage is 0.292.

Regarding C22A G52U, the self-cleavage amounted to 0.32. For the variant C22A U69A, the self-cleavage amounted to 0.284. Consider C22A U79A, for which the self-cleavage came out at 0.131. As to C22A U79C, the self-cleavage came out at 0.18. Consider C22A G25U, for which the self-cleavage came out at 0.0755. Consider C22A G25A, for which the self-cleavage is 0.0369. C22A C57G: the self-cleavage worked out at 0.543. Take C22A C57U: the self-cleavage was determined as 0.343.

In the case of C22A G35C, the self-cleavage was found to be 0. C22A G35U: the self-cleavage was 0.0791. For the variant C22A G35A, the self-cleavage is 0.0386. Under C22A G73U stands 0.0573; under C22A C41A, 0.475.

For the variant C22A A43C, the self-cleavage was 0.111. Under C21U U37G stands 0.0875. As to C21U U65A, the self-cleavage amounted to 0.293. Under C22A G50U stands 0.293; under C22A G50C, 0.354. Under C21U U47C stands 0.271; under C21U C66U, 0.299. With C21U C66A, the self-cleavage is 0.153.

As for C22A G76C, the self-cleavage was 0.447. Take C22A G76A: the self-cleavage was 0.212. As for C22A G76U, the self-cleavage was 0.554. Under C21U C75G stands 0.151. Under C21U C75U stands 0.0248; under C21U C75A, 0.0739. With C22A G82U, the self-cleavage was found to be 0.111. In the case of C22A G82A, the self-cleavage worked out at 0.0767. Take C22A G82C: the self-cleavage worked out at 0. In the case of C21U U72A, the self-cleavage worked out at 0.141. Under C21U U72G stands 0.19. Take C22A C66U: the self-cleavage was found to be 0.302. Under C22A C66A stands 0.258; under C21U G35A, 0.108; under C21U G35C, 0.233. Regarding C21U G35U, the self-cleavage amounted to 0.0804. As to C22A G74C, the self-cleavage came out at 0.146. With C22A G74U, the self-cleavage was 0.0213.

Take C22A U46A: the self-cleavage was found to be 0.104.

C22A U46C: the self-cleavage came out at 0.0692. With C22A C33G, the self-cleavage stood at 0.213.

In the case of C21U U27A, the self-cleavage stood at 0.0536. Take C21U U27C: the self-cleavage came to 0.0536. With C21U C58U, the self-cleavage was 0.203. Under C22A G38C stands 0.0346; under C22A C48A, 0.201. Under C22A C48U stands 0.433; under C21U C64A, 0.185; under C22A C32U, 0.19. Regarding C22A C85A, the self-cleavage was 0.378. With C22A C85G, the self-cleavage was found to be 0.219. Under C22A G55A stands 0.284; under C22A C26A, 0.262. For C22A C26G, the self-cleavage was 0.119.

On to C22A G28C, for which the self-cleavage was found to be 0. Turning to C22A G28A, the self-cleavage amounted to 0.148. Under C22A G28U stands 0.106; under C22A U27G, 0.151. C22A A56U: the self-cleavage was found to be 0.323. Regarding C21U G40A, the self-cleavage turned out to be 0.538. As for C21U G40U, the self-cleavage worked out at 0.0764. In the case of C21U G38C, the self-cleavage was found to be 0.0923. On to C21U G38U, for which the self-cleavage was found to be 0.135. In the case of C21U G38A, the self-cleavage worked out at 0.177. With C22G, the self-cleavage was 0.0832. As for C22A, the self-cleavage is 0.306. Consider C22A C49G, for which the self-cleavage was 0.143. Take C21U G31C: the self-cleavage amounted to 0.0723. Under C21U G31A stands 0.142; under C22A C61A, 0.415. Under C22A C61G stands 0.323. As for C21U U69C, the self-cleavage came out at 0.138.

As for C22A G80C, the self-cleavage was found to be 0.229. On to C22A G80U, for which the self-cleavage stood at 0.0408. Under C21U C84G stands 0.122. As for C21U C84A, the self-cleavage was found to be 0.0755. As to C21U C84U, the self-cleavage came out at 0.0923.

Consider C21U G25U, for which the self-cleavage is 0.0811. Consider C21U G82U, for which the self-cleavage was 0.115.

With C21U G82A, the self-cleavage is 0.0906. As to C21U G82C, the self-cleavage is 0.181.

As for C21U G52A, the self-cleavage is 0.24.

As to C22A C44A, the self-cleavage was determined as 0.151. For C22A C44G, the self-cleavage stood at 0.0489. C21U U60C: the self-cleavage is 0.219. In the case of C21U U60A, the self-cleavage is 0.237. On to C22A G81U, for which the self-cleavage was determined as 0.0536. On to C21U G74U, for which the self-cleavage came to 0.0875. Under C21U G74C stands 0.158; under C21U G74A, 0.149; under C21U G50C, 0.115. For the variant C21U G50U, the self-cleavage is 0.141. With C21U G50A, the self-cleavage came out at 0.253. In the case of C22A G59A, the self-cleavage came out at 0.359. Under C22A G59U stands 0.377; under C22A C64G, 0.302; under C22A C64A, 0.107.

In the case of C22A C64U, the self-cleavage worked out at 0.32. Turning to C21U C63A, the self-cleavage stood at 0.234. Consider C21U C63U, for which the self-cleavage stood at 0.341. In the case of C21U C85A, the self-cleavage came out at 0.366.

In the case of C22A A45U, the self-cleavage worked out at 0.233.

C22A A45C: the self-cleavage was determined as 0.115. With C22A C58U, the self-cleavage is 0.332. C22A C58A: the self-cleavage is 0.203. Consider C22A C58G, for which the self-cleavage is 0.38.

Take C21U C61G: the self-cleavage was found to be 0.277. Consider C21U C61U, for which the self-cleavage is 0.319. Turning to C22A C62U, the self-cleavage was 0.387.

For C22A C62A, the self-cleavage stood at 0.339. As for C22A U47A, the self-cleavage turned out to be 0.208.

As for C22A U47C, the self-cleavage was 0. For the variant C22A U37A, the self-cleavage is 0.0554. For the variant C22A C86A, the self-cleavage came out at 0.448. In the case of C22A C86G, the self-cleavage was 0.208. For C21U G80C, the self-cleavage worked out at 0.151. Consider C22A A70G, for which the self-cleavage amounted to 0.203. For C22A A70C, the self-cleavage came out at 0.17. Take C22A A83G: the self-cleavage worked out at 0.14. C22A A83U: the self-cleavage turned out to be 0.0678. C22A A51U: the self-cleavage came out at 0.332.

For C21U G55U, the self-cleavage amounted to 0.17.

In the case of C22G A42C, the self-cleavage turned out to be 0.185. As for C22A U60C, the self-cleavage turned out to be 0.424. Consider C22A G29C, for which the self-cleavage was 0.0449. For C22A G29A, the self-cleavage was 0.0297. Under C21U C62A stands 0.214; under C21U G34A, 0.0225; under C22A U65G, 0.302. Under C22A A87U stands 0.24.

C21U C86U: the self-cleavage was 0.282.

Turning to C22A A78C, the self-cleavage stood at 0.0692. Under C22A G68U stands 0.212; under C22A G68C, 0.22; under C21U G59C, 0.292. Under C21U G59U stands 0.288; under C21U G73C, 0.119; under C21U G73U, 0.145. Take C21U U79G: the self-cleavage came to 0.0426. Under C21U U79C stands 0.0573; under C22A A77C, 0.0378; under C22A A77U, 0.101. For the variant C22A C84G, the self-cleavage worked out at 0.17. For C22A C84A, the self-cleavage stood at 0.0707.

With C22A C84U, the self-cleavage was determined as 0.256.

Consider C21U G54A, for which the self-cleavage came to 0.159. In the case of C21U G54U, the self-cleavage was 0.232. Under C22A G34A stands 0.0573; under C22A G34C, 0.0773; under C22A G54C, 0.281.

With C22A G54U, the self-cleavage was found to be 0.317. Under C21U G76C stands 0.347.
